Read-outs that look alike come from different tables or passages of the source.
Assays:
[1] = target: PRRSV viral lysate (Porcine Reproductive and Respiratory Syndrome Virus)
[2] = target: PRRSV viral lysate (Porcine Reproductive and Respiratory Syndrome Virus); assay: ELISA, plate coated with 0.78 ng PRRSV viral lysate, 1 µg antibody
[3] = target: PRRSV viral lysate (Porcine Reproductive and Respiratory Syndrome Virus); assay: ELISA, plate coated with 1.56 ng PRRSV viral lysate, 1 µg antibody
[4] = target: PRRSV viral lysate (Porcine Reproductive and Respiratory Syndrome Virus); assay: ELISA, plate coated with 3.13 ng PRRSV viral lysate, 1 µg antibody
[5] = target: PRRSV viral lysate (Porcine Reproductive and Respiratory Syndrome Virus); assay: ELISA, plate coated with 6.25 ng PRRSV viral lysate, 1 µg antibody
[6] = target: PRRSV viral lysate (Porcine Reproductive and Respiratory Syndrome Virus); assay: ELISA, plate coated with 12.50 ng PRRSV viral lysate, 1 µg antibody
[7] = target: PRRSV viral lysate (Porcine Reproductive and Respiratory Syndrome Virus); assay: ELISA, plate coated with 25.00 ng PRRSV viral lysate, 1 µg antibody
[8] = target: PRRSV viral lysate (Porcine Reproductive and Respiratory Syndrome Virus); assay: ELISA, plate coated with 50.00 ng PRRSV viral lysate, 1 µg antibody
[9] = target: PRRSV viral lysate (Porcine Reproductive and Respiratory Syndrome Virus); assay: ELISA Test 2, plate coated with viral lysate, antibody diluted 1:4000
[10] = target: porcine coronavirus lysate; assay: as above
[11] = target: PRRSV viral lysate (Porcine Reproductive and Respiratory Syndrome Virus); assay: ELISA Test 1, plate coated with viral lysate, antibody diluted 1:4000, Group 1
[12] = target: porcine coronavirus lysate; assay: as above
[13] = target: porcine pseudorabies virus lysate; assay: as above
[14] = target: PRRSV viral lysate (Porcine Reproductive and Respiratory Syndrome Virus); assay: ELISA Test 1, plate coated with viral lysate, antibody diluted 1:4000, Group 2
[15] = target: porcine coronavirus lysate; assay: as above
[16] = target: porcine pseudorabies virus lysate; assay: as above

B1: anti-PRRSV antibody 142 (antibody, V domains shown)
VH: EVQRVESGPGLVKPSQSLSLTCTVTGYSITNDYAWNWIRQFPGNKLEWMGYISYSGSTSYNPYLKSRISITRDTSKNQFFLQLNSVPTEDTATYYCARSTYGNYGYYYAMDCWGQGTSVTVSS
VL: DIVLTQSPASLAVSLGQRATISCRASESIEYYGTSLMQWYQQKPGQPPKLLIYAASNVESGVPARFSGSGSGTDFSLNIHPVEEDDIAMYFCQQSRKVPTFGGGTKLEIKR
OD450 [1]: 1.58 OD450
OD450 [2]: 0.984 OD450
OD450 [3]: 1.05 OD450
OD450 [4]: 0.959 OD450
OD450 [5]: 1.16 OD450
OD450 [6]: 1.11 OD450
OD450 [7]: 1.3 OD450
OD450 [8]: 1.36 OD450
OD450 [9]: 0.411 OD450
OD450 [10]: 0.136 OD450
OD450 [11]: 0.385 OD450
OD450 [12]: 0.148 OD450
OD450 [13]: 0.082 OD450
OD450 [14]: 0.344 OD450
OD450 [15]: 0.133 OD450
OD450 [16]: 0.08 OD450

— US12625138
